One series has as its system BE2C cells. As to the kind of experiment: Dopamine toxicity in BE2C cells, viability by Neutral red staining. As to conditions: for cell survival at high Dopamine concentrations compared to control: BE2C cells, infection and transfection, Dopamine 24 hours, vs empty vector (FIG. 4 and 5); for protection of cells (Neutral red staining): 24 hours after exposure to high dopamine concentrations. It counts as cell-based, human. From the text:
The aim of the experiment was validation of the fragment of KIAA0538 found using Dopamine selection (SEQ. I.D. No 94) which has 253 nucleotides. A slightly smaller fragment was used , wherein the first 12 of the nucleotides of SEQ. I.D. No 94 were replaced with 5 different nucleotides. The location of this smaller fragment (having 246 nucleotides) within the KIAA0538 cDNA is from nucleotide 2020 to nucleotide 2265. For purpose of validation, cells were studied either after decrease of the gene expression by means of transfection or transduction with an antisense expressing vector (the fragment rescued from the library during the functional screening), or after increased gene expression using transfection with a full length expression vector. For experiment, BE2C cells were seeded into 6-well plates at density 100,000 cells/well. Retroviral vector expressing KIAA0538 antisense fragment (rescued in functional selection) fragment or empty vector (pLXSN) were introduced in neuroblastoma cells by two different methods—transfection using Fugen6 reagent (Rosh) or by retroviral infection. Population of transfected/transduced cells was enriched by 3 days G418 selection. BE2C cells were further treated with different concentrations of Dopamine for 24 hours and assayed for viability by Neutral red staining (FIG. 4—infection; FIG. 5—transfection).

The next series relates to P19 cells. As to the kind of experiment: Colony formation assay in P19 cells, normoxic or ischemic conditions. As to conditions: vs empty vector (FIG. 6). It is filed as cell-based, mouse. On the procedure: FIG. 6B is a graphical representation of FIG. 6A.
The effect of the full length KIAA0538 cDNA on cell survival was tested in colony formation assay in non-differentiated P19 cells stably expressing Tet-activator (confers high level of expression from responsive promoters). P19 cells were transfected with eithet empty vector or the same vector containing the full-length KIAA0538 cDNA under the control of Tet-repressible promoter. The number of transfected cells further taken for colony formation assay was normalized by cotransfection with GFP, so that the equal number of GFP-positive cells was taken for the assay. The cells were further plated and grown in the absence of tetracycline (to ensure the gene's expression) and in the presence of hygromycin (selectable marker) for 48 hours. Then part of the plates were subjected to 16 hours ischemia (0.5% O2 and no glucose) and following the transfer into normoxic conditions were further grown until the accomplishing of hygromycin selection (death of mock-transfected cells). The cell colonies grown in plates were fixed, stained with methylene blue and photographed with a CCD camera (FIG. 6). The area of the colonies was quantified using the IMAGE-Pro program.

B1: SEQ ID No 94: library-derived antisense cDNA fragment of KIAA 0538, expressed from retroviral vector pLXSN (nucleic acid, listed as Homo sapiens)
antisense: TTAAAACTGCTTACCAGTGGCTGTCTGCGCTGCGGAAGGTGAGCATCAACAACACGGGACTGTTGGGCTCCTACCACCCTGGCGTCTTCCGTGGGGACAAGTGGAGCTGCTGCCACCAAAAAGAGAAGACAGGTCAGGGCTGCGATAAGACCCGGNCACGGGTGACCCTGCAGGAGTGGAATGACCCTNTTGACCGTGACCTTGAGGCCCANCTCATCTACCGGCACCTGCTGGGCGNGGAGGCCATGCTGTG
modifications: expressed from retroviral vector pLXSN; (156)..(238) n
notes: library-derived antisense cDNA fragment of KIAA 0538, expressed from retroviral vector pLXSN
For B1, the “cell survival at high Dopamine concentrations compared to control” value with BE2C cells (listed as KIAA0538 antisense fragment) was “rescue of cells from apoptotic death”; in the series with BE2C cells (listed as antisense KIAA0538 fragment) it was “protects”; in the series on BE2C cells (listed as antisense fragment of KIAA0538), “increased cell survival”. Also, the “protection of cells (Neutral red staining)” value with BE2C cells (retrovirally infected BE2C cells, vs control vector pLXSN (FIG. 4)) is “protection”; in the series with BE2C cells (transiently transfected BE2C cells, vs control vector pLXSN (FIG. 5)) it was “protection”.

B2: full length cDNA clone of KIAA 0538: full-length KIAA0538 cDNA under the control of Tet-repressible promoter, transfected into P19 cells (nucleic acid, listed as Homo sapiens)
DNA: TTAAAACTGCTTACCAGTGGCTGTCTGCGCTGCGGAAGGTGAGCATCAACAACACGGGACTGTTGGGCTCCTACCACCCTGGCGTCTTCCGTGGGGACAAGTGGAGCTGCTGCCACCAAAAAGAGAAGACAGGTCAGGGCTGCGATAAGACCCGGNCACGGGTGACCCTGCAGGAGTGGAATGACCCTNTTGACCGTGACCTTGAGGCCCANCTCATCTACCGGCACCTGCTGGGCGNGGAGGCCATGCTGTG
modifications: under Tet-repressible promoter; (156)..(238) n
notes: full-length KIAA0538 cDNA under the control of Tet-repressible promoter, transfected into P19 cells
As to B2, the “effect on cell survival, colony formation” value in the series on P19 cells (16 hours ischemia (0.5% O2 and no glucose)) was “very few colonies remaining”; with P19 cells (16 hours ischemia (0.5% O2 and no glucose), listed as KIAA0538), “almost entirely non-viable”; in the series with P19 cells (16 hours ischemia (0.5% O2 and no glucose), listed as full-length cDNA), “dramatically cytotoxic”; in the series on P19 cells (normoxic conditions, listed as KIAA0538), “detrimental”; in the series with P19 cells (normoxic conditions, listed as full-length cDNA), “moderately cytotoxic”.
